As a reminder, the Kd is the concentration at which binding is half-saturated. Higher therefore signals weaker binding. The term koff denotes the first-order rate constant of dissociation. Low readings indicate a long-lived complex, high ones a short-lived complex. A word on the kon: it is the second-order rate constant of association. A lower kon goes with slower complex formation.

Assay [1] addresses T1, E1_S1 (design 1W4K_08), epitope scaffold presenting the HCV E1 epitope (residues 314-324) (designed scaffold from Pyrobaculum …).
T1 chain: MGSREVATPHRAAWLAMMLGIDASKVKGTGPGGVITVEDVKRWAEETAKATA

In assay [2] the target is E2_S3_3 (design 4CIL_03), epitope scaffold presenting HCV E2 epitope I. As to conditions: both partners purified.
Assay [3] concerns the target T2, E2_S2_1 (design 2K6Z_01), epitope scaffold presenting HCV E2 epitope I.
T2 chain: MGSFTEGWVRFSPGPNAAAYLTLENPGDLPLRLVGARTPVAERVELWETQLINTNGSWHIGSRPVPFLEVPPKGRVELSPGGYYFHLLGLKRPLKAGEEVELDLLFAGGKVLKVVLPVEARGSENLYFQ
As to conditions: both partners purified.

Assay [4] has as its target T1, E1_S1 (design 1W4K_08), epitope …. Put plainly: grating-coupled interferometry (GCI, Creoptix WAVE). As to conditions: both partners purified.

B1: N15 (antibody, V domains shown)
VH: QVQLVESGGGVVQPGRSLRLSCAASGFTFSSYVMHWVRQAPGKGLEWVAVISYDGSNKYYADSVKGRFTISRDNSKNTLYLQMNSLRAEDTAVYYCARAPLYDILSDYWGQGTLVTVSS
VL: QLVLTQSPSASASLGASVKLTCTLSSGHSSYAIAWHQQQPEKGPRYLMKLNSDGSHSKGDGIPDRFSGSSSGAERYLTISSLQSEDEADYYCQTWGTGIVVFGGGTKLTVL
For B1, the binding result in assay [1] was “binds”.

B2: Fab fragment of neutralizing antibody HCV1 (Fab, V domains shown)
VH: EVQLLESGGGVVQPGRSLRLSCTASGFTFNNYGMHWVRQTPGKGLEWLAVIWFDENNKYYADSVRGRFTISRDNSKNTLFLQMNSLKTEDTAMYYCARDISLVRDAFIYFDFWGLGTLVTVSS
VL: ELTLTQSPATLSLSPGERATLSCRASQSVSSYLAWYQQKPGQAPRLLIYDASNRATGIPARFSGSGSGTDFTLTISSLEPEDFAVYYCQQRSNWITFGQGTRLEIK
notes: also called Fab HCV1; F(ab) HCV1
In assay [2], B2 returned a dissociation constant Kd of 2.8 nM, a koff of 0.000369 s⁻¹ and a kon of 133000 M⁻¹ s⁻¹. In assay [3], this molecule showed a Kd of 23 nM, a koff of 0.00121 s⁻¹ and an on-rate (kon) of 52700 M⁻¹ s⁻¹.

B3: Fab fragment of neutralizing antibody IGH526 (Fab, V domains shown)
VH: VQLLEQSGAEVKRPGASVKVSCKASGYTFTSYAIHWVRQAPGQRLEWMGWINPGNGNAKYSQRFQGRVIISRDTSATTSYMELSSLTSEDTAVYSCARDRGFDLLTGHYLGLDPWGQGTLVTVSS
VL: ELTLTQPASASATPGQRVTISCSGSSSNIGGNTVNWYQHLPGAAPKLLIHNNDLRPSGVPDRFSGSKSGTSASLAVSGLQSEDEADYFCAAWDDGLNGWVFGGGTKLTVL
Take B3: in assay [4], binding was characterised by a dissociation constant (Kd) of 1.4 nM, the koff turned out to be 0.00181 s⁻¹ and the kon was found to be 1.32e+06 M⁻¹ s⁻¹.

These data come from publication PMC11623273, “Epitope-focused immunogens targeting the hepatitis C virus glycoproteins induce broadly neutralizing antibodies” (Science Advances, 2024).
